Literature values as cited in patent publication US7776891B2, “VLA-4 antagonists” (Merck Sharp & Dohme Corp., priority 2004, dated 2010).

Biological target: T1, VLA-4 (Homo sapiens, UniProt P13612)
T1 construct: host or cells: circulating VLA-4-bearing leukocytes of trial subjects (endogenous)
Conditions: early clinical trials

Q: With “natalizumab: humanized monoclonal antibody against α4 (Antegren®, Elan/Biogen)” as the substance, how does the “lymphocytosis (a surrogate marker for blockade of VLA-4 function)” value read?
A: observed

Q: What about the receptor occupancy of the same substance?
A: > 80%
